Data taken from PMC6436931, “Activation of the Endonuclease that Defines mRNA 3′ Ends Requires Incorporation into an 8-Subunit Core Cleavage and Polyadenylation Factor Complex” (Molecular Cell, 2019).

T1: Ysh1;Mpe1 (Saccharomyces cerevisiae;Saccharomyces …, UniProt Q06224;P35728 1-779;1-441, |)
T1 sequence 1: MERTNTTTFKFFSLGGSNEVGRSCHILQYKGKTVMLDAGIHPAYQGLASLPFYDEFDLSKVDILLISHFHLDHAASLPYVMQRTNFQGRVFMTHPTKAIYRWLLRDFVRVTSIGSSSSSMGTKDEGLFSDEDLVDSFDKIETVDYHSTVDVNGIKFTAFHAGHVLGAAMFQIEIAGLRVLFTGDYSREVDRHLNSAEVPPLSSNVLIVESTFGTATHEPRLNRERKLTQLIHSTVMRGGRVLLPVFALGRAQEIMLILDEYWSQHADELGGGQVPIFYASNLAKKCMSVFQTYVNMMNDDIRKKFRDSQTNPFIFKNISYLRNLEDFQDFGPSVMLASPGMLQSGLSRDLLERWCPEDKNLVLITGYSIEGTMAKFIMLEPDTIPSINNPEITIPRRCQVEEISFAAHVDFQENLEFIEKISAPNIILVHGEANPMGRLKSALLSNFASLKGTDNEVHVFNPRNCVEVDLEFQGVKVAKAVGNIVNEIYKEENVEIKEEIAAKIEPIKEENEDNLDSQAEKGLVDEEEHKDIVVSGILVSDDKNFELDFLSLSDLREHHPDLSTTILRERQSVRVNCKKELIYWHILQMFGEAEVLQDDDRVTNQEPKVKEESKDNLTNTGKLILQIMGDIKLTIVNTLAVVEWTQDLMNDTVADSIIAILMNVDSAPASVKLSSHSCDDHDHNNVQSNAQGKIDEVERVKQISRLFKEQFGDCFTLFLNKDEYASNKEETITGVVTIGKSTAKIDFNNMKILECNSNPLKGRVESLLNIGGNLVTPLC
T1 sequence 2: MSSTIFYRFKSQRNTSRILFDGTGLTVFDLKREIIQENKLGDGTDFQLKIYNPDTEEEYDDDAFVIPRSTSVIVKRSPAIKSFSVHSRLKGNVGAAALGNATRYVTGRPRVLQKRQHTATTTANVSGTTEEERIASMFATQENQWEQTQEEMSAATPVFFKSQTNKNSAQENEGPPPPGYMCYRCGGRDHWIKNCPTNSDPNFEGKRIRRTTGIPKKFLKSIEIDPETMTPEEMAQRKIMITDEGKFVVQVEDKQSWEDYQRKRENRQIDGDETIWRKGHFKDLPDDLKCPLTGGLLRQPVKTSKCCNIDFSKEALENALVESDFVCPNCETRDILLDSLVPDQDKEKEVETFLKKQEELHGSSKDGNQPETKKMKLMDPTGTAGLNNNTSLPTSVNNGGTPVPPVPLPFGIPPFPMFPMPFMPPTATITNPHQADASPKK


How the values were obtained:
[1] = biological target: Cft1;Pfs2;Yth1;Fip1;Pap1;Cft2 (Saccharomyces cerevisiae;Saccharomyces …, UniProt Q06632;P42841;Q06102;P45976;P29468;Q12102 1-1357;1-465;1-208;1-327;1-568;1-859, |||||); assay: EMSA; CPFpol + Cft2; EMSA: 50 nM RNA, 0.25-4.0 uM protein, protein diluted in 10 mM HEPES pH 7.9, 150 mM NaCl, 0.5 mM Mg(OAc)2, plus 1x loading dye (orange G, glycerol, EDTA); 30 min on ice; native 6% acrylamide/TBE PAGE; settings: protein: recombinant;recombinant;recombinant;recombinant;recombinant;recombinant, tags: ;3C-SII;3C-8H, untagged in CPFpol+Cft2;;SII (Pap1-SII) when alone, untagged in CPFpol and CPFcore;SII (Cft2-SII) when alone, copies: 1;2;1;1;1;1, label: 5'-FAM
[2] = biological target: Cft1;Pfs2;Yth1;Fip1;Pap1;Cft2;Ysh1;Mpe1 (Saccharomyces cerevisiae;Saccharomyces …, UniProt Q06632;P42841;Q06102;P45976;P29468;Q12102;Q06224;P35728 …, |||||||); assay: EMSA; CPFcore; EMSA: 50 nM RNA, 0.25-4.0 uM protein, protein diluted in 10 mM HEPES pH 7.9, 150 mM NaCl, 0.5 mM Mg(OAc)2, plus 1x loading dye (orange G, glycerol, EDTA); 30 min on ice; native 6% acrylamide/TBE PAGE; settings: tags: ;3C-SII;3C-8H, untagged in CPFpol+Cft2;;SII (Pap1-SII) when alone, untagged in CPFpol and CPFcore;SII (Cft2-SII) when alone, untagged in CPFpol+Cft2 and CPFcore;;3C-SII (C-terminal) in Ysh1-Mpe1 complexes, copies: 1;2;1;1;1;1;1;1, label: 5'-FAM
Rna14;Rna15;Pcf11;Clp1 = Rna14;Rna15;Pcf11;Clp1 (Saccharomyces cerevisiae;Saccharomyces …, UniProt P25298;P25299;P39081;Q08685 1-677;1-296;1-626;1-445, |||); assay: EMSA; CF IA; EMSA: 50 nM RNA, 0.25-4.0 uM protein, protein diluted in 10 mM HEPES pH 7.9, 150 mM NaCl, 0.5 mM Mg(OAc)2, plus 1x loading dye (orange G, glycerol, EDTA); 30 min on ice; native 6% acrylamide/TBE PAGE; settings: protein: recombinant;recombinant;recombinant;recombinant; tags: 6H;;6H;; chain copies: 2;2;1;1; label: 5'-FAM
Rna14;Rna15;Pcf11;Clp1, sequence (P25298 whole entry, chain 1 of 4): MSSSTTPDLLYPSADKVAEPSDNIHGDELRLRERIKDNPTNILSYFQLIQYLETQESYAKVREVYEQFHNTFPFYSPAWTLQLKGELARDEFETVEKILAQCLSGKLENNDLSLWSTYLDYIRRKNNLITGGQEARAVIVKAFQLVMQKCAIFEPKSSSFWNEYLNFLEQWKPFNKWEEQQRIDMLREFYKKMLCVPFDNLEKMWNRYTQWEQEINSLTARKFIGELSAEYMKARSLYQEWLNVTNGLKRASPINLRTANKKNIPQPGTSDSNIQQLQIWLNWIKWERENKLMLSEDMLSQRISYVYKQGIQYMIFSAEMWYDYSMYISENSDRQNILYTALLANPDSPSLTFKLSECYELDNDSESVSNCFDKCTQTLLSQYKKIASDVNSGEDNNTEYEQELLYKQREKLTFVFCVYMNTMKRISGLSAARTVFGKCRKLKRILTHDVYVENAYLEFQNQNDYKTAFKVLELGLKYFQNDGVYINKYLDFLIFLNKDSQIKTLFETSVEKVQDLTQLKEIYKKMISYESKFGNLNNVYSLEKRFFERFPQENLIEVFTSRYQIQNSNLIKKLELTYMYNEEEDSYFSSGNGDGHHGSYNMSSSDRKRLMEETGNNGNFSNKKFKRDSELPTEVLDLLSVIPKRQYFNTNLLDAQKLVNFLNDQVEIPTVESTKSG
Rna14;Rna15;Pcf11;Clp1, sequence (P25299 whole entry, chain 2 of 4): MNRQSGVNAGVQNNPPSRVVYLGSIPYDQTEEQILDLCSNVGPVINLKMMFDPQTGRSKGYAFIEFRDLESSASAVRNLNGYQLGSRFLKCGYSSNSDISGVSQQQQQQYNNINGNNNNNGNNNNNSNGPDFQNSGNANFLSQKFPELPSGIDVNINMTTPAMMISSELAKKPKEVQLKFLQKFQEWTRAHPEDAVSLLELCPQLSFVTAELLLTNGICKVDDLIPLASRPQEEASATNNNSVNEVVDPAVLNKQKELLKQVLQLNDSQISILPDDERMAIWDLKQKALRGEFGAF
Rna14;Rna15;Pcf11;Clp1, sequence (P39081 whole entry, chain 3 of 4): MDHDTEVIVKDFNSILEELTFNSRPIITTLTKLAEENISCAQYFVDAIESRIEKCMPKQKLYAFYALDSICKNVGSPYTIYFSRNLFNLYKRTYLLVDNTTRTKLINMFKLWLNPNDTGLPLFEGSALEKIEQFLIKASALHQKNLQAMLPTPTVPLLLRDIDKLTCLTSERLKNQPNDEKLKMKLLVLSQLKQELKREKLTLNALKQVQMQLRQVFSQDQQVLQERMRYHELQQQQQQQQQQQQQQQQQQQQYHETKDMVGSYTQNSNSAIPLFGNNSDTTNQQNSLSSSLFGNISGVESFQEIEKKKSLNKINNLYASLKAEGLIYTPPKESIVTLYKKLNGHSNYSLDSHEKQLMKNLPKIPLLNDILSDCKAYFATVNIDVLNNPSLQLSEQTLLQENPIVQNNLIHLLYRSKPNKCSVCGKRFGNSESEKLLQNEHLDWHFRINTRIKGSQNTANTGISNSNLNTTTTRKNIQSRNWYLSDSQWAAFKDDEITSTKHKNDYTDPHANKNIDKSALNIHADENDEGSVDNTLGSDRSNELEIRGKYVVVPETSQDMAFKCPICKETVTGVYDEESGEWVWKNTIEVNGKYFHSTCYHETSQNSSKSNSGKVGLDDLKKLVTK
Rna14;Rna15;Pcf11;Clp1, sequence (Q08685 whole entry, chain 4 of 4): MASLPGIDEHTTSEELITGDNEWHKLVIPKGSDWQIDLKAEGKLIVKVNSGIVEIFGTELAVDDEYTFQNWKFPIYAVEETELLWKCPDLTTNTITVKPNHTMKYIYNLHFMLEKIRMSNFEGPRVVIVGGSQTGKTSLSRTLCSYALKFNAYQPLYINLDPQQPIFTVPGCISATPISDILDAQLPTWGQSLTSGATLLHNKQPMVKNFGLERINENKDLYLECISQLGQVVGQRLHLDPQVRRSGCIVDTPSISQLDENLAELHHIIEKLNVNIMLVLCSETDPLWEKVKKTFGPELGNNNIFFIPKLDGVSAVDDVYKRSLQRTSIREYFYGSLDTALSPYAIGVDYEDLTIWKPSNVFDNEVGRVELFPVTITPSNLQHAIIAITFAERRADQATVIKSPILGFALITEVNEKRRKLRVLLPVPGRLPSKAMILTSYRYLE

Ysh1;Mpe1;Yjr141w = Ysh1;Mpe1;Yjr141w (Saccharomyces cerevisiae;Saccharomyces …, UniProt Q06224;P35728;P47172 1-779;1-441;1-347, ||); assay: EMSA; EMSA: 50 nM RNA, 0.25-4.0 uM protein, protein diluted in 10 mM HEPES pH 7.9, 150 mM NaCl, 0.5 mM Mg(OAc)2, plus 1x loading dye (orange G, glycerol, EDTA); 30 min on ice; native 6% acrylamide/TBE PAGE; settings: protein: recombinant;recombinant;recombinant; tags: ;3C-SII (C-terminal) in Ysh1-Mpe1 complexes; untagged in CPFcore;SII-3C (N-terminal) in Ysh1-Yjr141w; untagged in Ysh1-Mpe1-Yjr141w; copies: 1;1;1; label: 5'-FAM
Ysh1;Mpe1;Yjr141w, sequence (P47172 whole entry, chain 3 of 3, one chain of several): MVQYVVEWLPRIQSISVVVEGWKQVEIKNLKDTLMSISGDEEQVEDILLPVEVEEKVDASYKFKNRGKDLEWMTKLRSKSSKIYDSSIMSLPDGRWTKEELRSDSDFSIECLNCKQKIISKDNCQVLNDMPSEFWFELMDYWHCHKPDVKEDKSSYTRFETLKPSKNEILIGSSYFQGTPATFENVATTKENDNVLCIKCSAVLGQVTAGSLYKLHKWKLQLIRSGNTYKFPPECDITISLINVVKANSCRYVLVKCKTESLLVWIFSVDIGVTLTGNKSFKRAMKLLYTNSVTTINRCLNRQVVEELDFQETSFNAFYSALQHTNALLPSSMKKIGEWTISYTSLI

Ysh1;Mpe1 = biological target: T1, Ysh1;Mpe1; assay: as above; settings: protein: recombinant;recombinant; tags: ;3C-SII (C-terminal) in Ysh1-Mpe1 complexes; untagged in CPFcore; copies: 1;1; label: 5'-FAM

| Binder | binding result [1] | binding result [2] | binding result (Rna14;Rna15;Pcf11;Clp1) | binding result (Ysh1;Mpe1;Yjr141w) | binding result (Ysh1;Mpe1) |
| --- | --- | --- | --- | --- | --- |
| AAGAACGUUAUUUAUAUUUCAAAUUUUUCUUUUUU (ssRNA) [CYC1d EMSA probe] | binds | binds | binds |  |  |
| CGUUAUUUAUAUUUCAAAUUUUUCU (ssRNA) [CYC1f EMSA probe] | binds | binds | binds |  |  |
| AAAAAAAAAAAAAAA (ssRNA) [A15] | binds | binds | no binding | no binding | no binding |
| UUUUUUUUUUUUUUU (ssRNA) [U15] | no binding | no binding | binds | no binding | no binding |
| CCCCCCCCCCCCCCC (ssRNA) [C15] | no binding | no binding | no binding | no binding | no binding |
| GGGGGGGGGGGGGGG (ssRNA) [G15] | binds | binds | binds | binds | binds |
